Key:
[1] = molecular target: PaFtsH2-6xHis (FtsH2 of Pseudomonas aeruginosa SG17M clone C, tLST genomic island) (Pseudomonas aeruginosa SG17M); assay: negative-stain electron microscopy; detergent-solubilised enzyme at 0.4 mg/ml in storage buffer with 0.1% Igepal, 2% uranyl acetate; 3D reconstruction with C6 symmetry, about 22 A
[2] = molecular target: PaFtsH2-6xHis (FtsH2 of Pseudomonas aeruginosa SG17M clone C, tLST genomic island) (Pseudomonas aeruginosa SG17M); assay: SEC; analytical Superdex 200 (increase) 3.2/3.0 gel filtration column in Buffer PD (50 mM Tris-HCl pH 8.0, 80 mM NaCl, 10% glycerol, 2 mM beta-mercaptoethanol, 0.1% NP-40); native mass from molecular weight standards; hexamer plus NP-40 micelles
[3] = molecular target: PaFtsH1-6xHis (FtsH1 of Pseudomonas aeruginosa SG17M clone C) (Pseudomonas aeruginosa SG17M); assay: negative-stain electron microscopy; detergent-solubilised enzyme at 0.4 mg/ml in storage buffer with 0.1% Igepal, 2% uranyl acetate; 3D reconstruction with C6 symmetry, about 22 A
[4] = molecular target: PaFtsH1-6xHis (FtsH1 of Pseudomonas aeruginosa SG17M clone C) (Pseudomonas aeruginosa SG17M); assay: SEC; analytical Superdex 200 (increase) 3.2/3.0 gel filtration column in Buffer PD (50 mM Tris-HCl pH 8.0, 80 mM NaCl, 10% glycerol, 2 mM beta-mercaptoethanol, 0.1% NP-40); native mass from molecular weight standards; hexamer plus NP-40 micelles

A stoichiometry N [1] of 6 and a stoichiometry N [2] of 6 were found for “PaFtsH2-6xHis (FtsH2 of Pseudomonas aeruginosa SG17M clone C, tLST genomic island) (enzyme)” in this work.
A stoichiometry N [3] of 6 and a stoichiometry N [4] of 6 were found for “PaFtsH1-6xHis (FtsH1 of Pseudomonas aeruginosa SG17M clone C) (enzyme)” in this work.
